Reference: patent US20240238380A1, “COMPOSITION FOR COMBINATION THERAPY COMPRISING GROWTH DIFFERENTIATION FACTOR-15 VARIANT AND GLUCAGON-LIKE PEPTIDE-1 RECEPTOR AGONIST” (YUHAN CORPORATION, priority 2021, published 2024)
Marks after values point to notes of the source that are not given here.

Tests used:
[1] = Pharmacokinetics of long-acting GDF15 fusion protein (dimer) in C57BL/6N mice; format: in vivo; details: 1 mg/kg subcutaneous; for Cmax: active GDF15 in serum by ELISA
Procedure: 6-week-old male C57BL/6N mice (Orient Bio, Republic of Korea) were purchased from Hallym Lab. Animal Inc., Republic of Korea. Animals were acclimated for 7 days, and on the day of drug administration, the mice were grouped based on the average body weight of individual mice (n=3 per blood sampling time per group). Then, FM9-4+Fc_hole, FM9-6+Fc_hole, FM11-4+Fc_hole, and FM11-6+Fc_hole were subcutaneously administered at 1 mg/kg to each group, and blood samples were collected at 4, 24, 48, 72, 96, 120, 168, and 240 hours after administration. Determination of active GDF15 in serum was achieved by enzyme-linked immunosorbent assay (ELISA), and pharmacokinetic parameters of each long-acting GDF15 fusion protein (dimer) are shown in Table 3 below.

[2] = target: T1, GFRAL/RET/SRE-luc-overexpressing HEK293 cell line (Homo sapiens, UniProt Q6UXV0); assay: Functional activity of long-acting GDF15 fusion protein (Bright-Glo luciferase assay); format: cell-based; details: for EC50 values (in words) / Emax values (in words): compared with the other linkers; for EC50: luciferase RLU, 4 hours reaction; for Emax (%): relative to FM9-6+Fc_hole (Emax 100%)
T1 construct: expressed in transfected cells; host or cells: HEK293 (human embryonic kidney 293), overexpressing GFRAL, RET and an SRE-luciferase reporter
Procedure: Two variants (FM9+Fc_hole, FM11+Fc_hole) were compared and evaluated for GDF15 activity depending on the linker type and length. The GDF15 activity was measured using a Bright-Glo™ luciferase assay kit (Promega) and a GFRAL/RET/SRE-luc-overexpressing HEK293 cell line (Human embryonic kidney 293).
Specifically, 1×10^5 GFRAL/RET/SRE-luc-overexpressing HEK293 cells were dispended in DMEM containing 10% FBS in each well of a 96-well-plate, followed by culture at 37° C. and 5% CO2 for 24 hours. After 24 hours, each medium of the 96-well plate was replaced with 50 μl of a serum-free medium, followed by culture at 37° C. and 5% CO2 for 4 hours.
In addition, the long-acting GDF15 fusion protein produced in Example 1 was prepared by 3-fold serial dilution from a concentration of 2000 nM using a serum-free medium. Thereafter, 50 μl of the long-acting GDF15 fusion protein dilution was added to each well containing 50 μl of the replaced serum-free medium and the GERAL/RET/SRE-luc cell line so that the actual concentration thereof was serially diluted 3-fold from 1000 nM, followed by reaction at 37° C. and 5% CO2 for 4 hours. After 4 hours, each well was treated with 100 μl of a Bright-Glo™ solution prepared by adding a Bright-Glo™ buffer to a Bright-Glo™ substrate, followed by reaction at room temperature for 1 minute.
Thereafter, the reaction value (relative light units, RLU) was measured using a microplate reader (Perkin Elmer, Wallac Victor X5) capable of measuring luminescence. The results thereof are shown in Table 2 below and in FIGS. 1 and 2. Here, the functional activity of the long-acting GDF15 fusion protein depending on the GDF15 sequence, linker type, and length was compared based on the in-vitro GDF15 activity of FM9-6+Fc_hole (Emax 100%).

[3] = Inhibitory effect on gastric emptying (acetaminophen exposure) in normal rats (Example 8); format: in vivo; details: rats, 30 mg/kg oral, positive control
Procedure: Therefore, this example was performed to investigate the inhibitory effect on gastric emptying when the novel long-acting GDF15 fusion protein was administered at the doses equal to the effective dose, higher than the maximum effective dose, or in combination with a GLP-1 receptor agonist to rats. 6-week-old male SD rats (Orient Bio, Republic of Korea) were purchased from Hallym Lab. Animal Inc., Republic of Korea. Animals were acclimated for 7 days. On the day of drug administration, the rats were grouped based on the average body weight of individual rats (n=5 per group) and fasted for at least 6 hours before oral administration of acetaminophen. Then, 0.1, 1, and 10 nmol/kg of FM9-6+Fc_hole, 10 nmol/kg of semaglutide (long-acting GLP-1 derivative, SEQ ID NO: 114), and combination of FM9-6+Fc_hole and semaglutide (1+10 nmol/kg) were subcutaneously administered. The semaglutide was Ozempic® (semaglutide) from Novo NorDisk. As a negative control drug, D-PBS (normal vehicle) was subcutaneously administered, and as a positive control drug, 30 mg/kg of loperamide was orally administered 45 minutes before acetaminophen administration. On 3, 24 and 72 hours after a single dose of the test articles, acetaminophen was orally administered at 100 mg/kg to rats, and blood samples were collected before and at 30, 60, 90, 120 and 150 minutes after acetaminophen administration. The plasma concentration of acetaminophen was analyzed, and the pharmacokinetic profiles and the systemic exposures of acetaminophen were compared to evaluate the inhibitory effect on gastric emptying among the groups.

T1 sequence (Q6UXV0 19-394, species assumed): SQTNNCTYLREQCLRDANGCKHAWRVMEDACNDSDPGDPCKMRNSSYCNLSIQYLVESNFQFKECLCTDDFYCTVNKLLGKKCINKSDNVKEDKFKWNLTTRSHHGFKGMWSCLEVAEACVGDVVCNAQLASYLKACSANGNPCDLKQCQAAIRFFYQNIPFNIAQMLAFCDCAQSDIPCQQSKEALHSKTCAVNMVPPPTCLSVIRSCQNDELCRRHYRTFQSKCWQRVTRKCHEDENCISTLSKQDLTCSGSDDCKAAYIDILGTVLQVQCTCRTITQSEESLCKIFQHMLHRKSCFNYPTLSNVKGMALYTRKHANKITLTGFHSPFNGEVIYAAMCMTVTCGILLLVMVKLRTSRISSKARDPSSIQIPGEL
T1 sequence (P07949 29-1114 partner, species assumed): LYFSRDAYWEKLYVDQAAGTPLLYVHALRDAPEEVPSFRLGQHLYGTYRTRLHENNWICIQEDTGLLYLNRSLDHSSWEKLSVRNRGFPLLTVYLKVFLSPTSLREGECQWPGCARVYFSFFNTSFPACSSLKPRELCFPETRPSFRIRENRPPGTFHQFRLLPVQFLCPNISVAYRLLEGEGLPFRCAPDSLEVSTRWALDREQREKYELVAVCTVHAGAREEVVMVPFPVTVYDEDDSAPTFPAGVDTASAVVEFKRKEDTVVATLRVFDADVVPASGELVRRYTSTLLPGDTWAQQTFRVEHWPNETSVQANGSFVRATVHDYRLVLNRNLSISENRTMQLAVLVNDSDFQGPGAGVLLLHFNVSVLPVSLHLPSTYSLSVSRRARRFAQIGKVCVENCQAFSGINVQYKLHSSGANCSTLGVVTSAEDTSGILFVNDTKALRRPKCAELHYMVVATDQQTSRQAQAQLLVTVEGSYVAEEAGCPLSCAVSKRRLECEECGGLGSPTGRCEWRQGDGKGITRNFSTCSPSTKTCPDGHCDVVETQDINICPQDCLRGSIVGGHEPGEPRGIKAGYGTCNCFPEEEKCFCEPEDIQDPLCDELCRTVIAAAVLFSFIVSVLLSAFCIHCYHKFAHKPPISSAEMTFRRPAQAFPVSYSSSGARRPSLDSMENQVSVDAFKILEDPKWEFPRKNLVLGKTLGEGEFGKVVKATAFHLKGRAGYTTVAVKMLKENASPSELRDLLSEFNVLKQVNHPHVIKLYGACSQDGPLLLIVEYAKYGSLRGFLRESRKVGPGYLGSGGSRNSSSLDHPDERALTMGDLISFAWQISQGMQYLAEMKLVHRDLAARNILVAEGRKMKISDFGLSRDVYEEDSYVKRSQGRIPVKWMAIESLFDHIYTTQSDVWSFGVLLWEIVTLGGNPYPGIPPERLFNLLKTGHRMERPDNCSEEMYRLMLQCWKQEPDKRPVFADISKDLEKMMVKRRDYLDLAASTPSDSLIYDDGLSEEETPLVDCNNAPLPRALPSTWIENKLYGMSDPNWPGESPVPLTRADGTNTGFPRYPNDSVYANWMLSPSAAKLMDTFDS

EC50 [2] | Emax (%) [2] | Compound | AUClast [1] | CL/F [1] | T1/2,app [1] | Tmax [1] | Cmax [1] | also measured
 |  | FM9-4 + Fc_hole: long-acting GDF15 fusion protein (dimer): GDF15 ΔN2, S64R, IgG1 Fc_knob/Fc_hole, linker GS(EEEA)6; SEQ ID NOs: 101 and 47 | 750.49702 µg·h/mL | 1.30 mL/h/kg | 36.84 h | 24 h | 8.42137 µg/mL | EC50 values (in words) [2]: relatively low EC50 values; Emax values (in words) [2]: high Emax values
7.8 nM | 81.0% | FM11-3 + Fc_hole: long-acting GDF15 fusion protein (dimer): GDF15 ΔN3, G4N, D5S, H6T, S64R, IgG1 Fc_knob/Fc_hole, linker GS(G4S)7; SEQ ID NOs: 106 and 47 |  |  |  |  |  | 
 |  | FM11-4 + Fc_hole: long-acting GDF15 fusion protein (dimer): GDF15 ΔN3, G4N, D5S, H6T, S64R, IgG1 Fc_knob/Fc_hole, linker GS(EEEA)6; SEQ ID NOs: 107 and 47 | 690.21308 µg·h/mL | 1.41 mL/h/kg | 40.61 h | 24 h | 7.20002 µg/mL | EC50 values (in words) [2]: relatively low EC50 values; Emax values (in words) [2]: high Emax values
9.3 nM | 95.6% | FM9-3 + Fc_hole: long-acting GDF15 fusion protein (dimer): GDF15 ΔN2, S64R, IgG1 Fc_knob/Fc_hole, linker GS(G4S)7; SEQ ID NOs: 100 and 47 |  |  |  |  |  | 
7.7 nM | 79.4% | FM11-2 + Fc_hole: long-acting GDF15 fusion protein (dimer): GDF15 ΔN3, G4N, D5S, H6T, S64R, IgG1 Fc_knob/Fc_hole, linker GS(G4S)5; SEQ ID NOs: 105 and 47 |  |  |  |  |  | 
9.5 nM | 110.8% | FM9-2 + Fc_hole: long-acting GDF15 fusion protein (dimer): GDF15 ΔN2, S64R, IgG1 Fc_knob/Fc_hole, linker GS(G4S)5; SEQ ID NOs: 99 and 47 |  |  |  |  |  | 
 |  | CN(C)C(=O)C(CCN1CCC(O)(c2ccc(Cl)cc2)CC1)(c1ccccc1)c1ccccc1 [Loperamide, loperamide, reference compound] |  |  |  |  |  | AUClast of acetaminophen (μg · min/mL), 3 hr ([3]; 3 hr): 1565.13 µg·min/mL; AUClast of acetaminophen (μg · min/mL), 24 hr ([3]; 24 hr): 761.04** μg · min/mL; AUClast of acetaminophen (μg · min/mL), 72 hr ([3]; 72 hr): 996.36*** μg · min/mL
 |  | FM11-6 + Fc_hole: long-acting GDF15 fusion protein (dimer): GDF15 ΔN3, G4N, D5S, H6T, S64R, IgG1 Fc_knob/Fc_hole, linker GS(EAAAK)5; SEQ ID NOs: 109 and 47 | 116.43394 µg·h/mL | 8.43 mL/h/kg | 25.84 h | 24 h | 1.54777 µg/mL | 
